# Assay results taken from publication PMC2908215.
# T1: MLH1 p.Arg659Leu (human), P40692
# T1 chain: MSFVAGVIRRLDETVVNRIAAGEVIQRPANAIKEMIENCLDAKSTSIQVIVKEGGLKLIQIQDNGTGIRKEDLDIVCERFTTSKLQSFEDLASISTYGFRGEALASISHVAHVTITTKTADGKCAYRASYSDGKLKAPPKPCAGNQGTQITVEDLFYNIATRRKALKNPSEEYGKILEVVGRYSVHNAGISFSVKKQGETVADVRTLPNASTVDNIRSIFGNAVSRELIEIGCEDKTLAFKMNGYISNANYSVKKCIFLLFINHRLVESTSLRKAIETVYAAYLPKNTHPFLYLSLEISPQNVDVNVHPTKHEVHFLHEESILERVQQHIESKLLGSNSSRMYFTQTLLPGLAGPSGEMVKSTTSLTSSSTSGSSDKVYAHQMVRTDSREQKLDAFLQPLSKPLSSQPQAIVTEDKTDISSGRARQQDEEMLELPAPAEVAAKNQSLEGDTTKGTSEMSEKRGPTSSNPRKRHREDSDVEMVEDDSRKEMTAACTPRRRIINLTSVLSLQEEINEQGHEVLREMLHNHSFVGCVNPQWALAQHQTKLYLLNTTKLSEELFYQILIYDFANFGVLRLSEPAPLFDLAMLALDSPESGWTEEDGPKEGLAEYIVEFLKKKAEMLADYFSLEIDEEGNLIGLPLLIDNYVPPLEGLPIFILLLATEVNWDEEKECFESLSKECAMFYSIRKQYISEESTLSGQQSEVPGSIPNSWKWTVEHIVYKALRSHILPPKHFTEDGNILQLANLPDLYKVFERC
# B1: PMS2, P54278 1-862 (natural protein)
# chain: MERAESSSTEPAKAIKPIDRKSVHQICSGQVVLSLSTAVKELVENSLDAGATNIDLKLKDYGVDLIEVSDNGCGVEEENFEGLTLKHHTSKIQEFADLTQVETFGFRGEALSSLCALSDVTISTCHASAKVGTRLMFDHNGKIIQKTPYPRPRGTTVSVQQLFSTLPVRHKEFQRNIKKEYAKMVQVLHAYCIISAGIRVSCTNQLGQGKRQPVVCTGGSPSIKENIGSVFGQKQLQSLIPFVQLPPSDSVCEEYGLSCSDALHNLFYISGFISQCTHGVGRSSTDRQFFFINRRPCDPAKVCRLVNEVYHMYNRHQYPFVVLNISVDSECVDINVTPDKRQILLQEEKLLLAVLKTSLIGMFDSDVNKLNVSQQPLLDVEGNLIKMHAADLEKPMVEKQDQSPSLRTGEEKKDVSISRLREAFSLRHTTENKPHSPKTPEPRRSPLGQKRGMLSSSTSGAISDKGVLRPQKEAVSSSHGPSDPTDRAEVEKDSGHGSTSVDSEGFSIPDTGSHCSSEYAASSPGDRGSQEHVDSQEKAPKTDDSFSDVDCHSNQEDTGCKFRVLPQPTNLATPNTKRFKKEEILSSSDICQKLVNTQDMSASQVDVAVKINKKVVPLDFSMSSLAKRIKQLHHEAQQSEGEQNYRKFRAKICPGENQAAEDELRKEISKTMFAEMEIIGQFNLGFIITKLNEDIFIVDQHATDEKYNFEMLQQHTVLQGQRLIAPQTLNLTAVNEAVLIENLEIFRKNGFDFVIDENAPVTERAKLISLPTSKNWTFGPQDVDELIFMLSDSPGVMCRPSRVKQMFASRACRKSVMIGTALNTSEMKKLITHMGEMDHPWNCPHGRPTMRHIANLGVISQN
# Target: T1, MLH1 p.Arg659Leu (human), P40692
# Assay: co-IP
# Details: remark: other sources report otherwise
binder,measurement,value
B1,co-precipitated PMS2 in relation to wild-type (% of wild-type),77
